# Experimental data published in patent US20190300625A1 (Regeneron, published 2019).
# B1: H1H7017N (antibody, human IgG1, kappa, V domains shown)
# VH: QVQLVESGGGVVQPGRSLRLSCAASGFTFSSYGMHWVRQSPGKGLEWVAVIWNDGSYVYYADSVKGRFTISRDISKNTLFLQMNSLRAEDTAVYYCAREGEWVLYYFDYWGQGTLVTVSS
# VL: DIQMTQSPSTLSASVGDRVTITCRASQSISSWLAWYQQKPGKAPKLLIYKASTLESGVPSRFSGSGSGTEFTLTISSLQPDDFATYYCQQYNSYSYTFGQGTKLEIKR
# notes: also called anti-TMPRSS2 mAb; anti-hTMPRSS2 antibody
# What was measured:
# [1] = target: human TMPRSS2 (NP_005647.3 with a V160M) expressed on MDCK/Tet-on/hTMPRSS2 cells (human, UniProt O15393 1-492); assay: flow cytometry on MDCK/Tet-on/hTMPRSS2 cells, doxycycline-induced
# [2] = target: cynomolgous monkey TMPRSS2 (XP_015302311.1 with S129L, N251S, I415V, R431Q, D492G) expressed on … (cynomolgous monkey; SEQ ID NO …); assay: flow cytometry on MDCK/Tet-on/mfTMPRSS2 cells, doxycycline-induced
# cynomolgous monkey TMPRSS2 (XP_015302311.1 with S129L, N251S, I415V, R431Q, D492G) expressed on … (cynomolgous monkey; SEQ ID NO …), sequence (chain, as listed by the source S129L N251S I415V R431Q D492G S129L N251S I415V R431Q D492G limits assumed): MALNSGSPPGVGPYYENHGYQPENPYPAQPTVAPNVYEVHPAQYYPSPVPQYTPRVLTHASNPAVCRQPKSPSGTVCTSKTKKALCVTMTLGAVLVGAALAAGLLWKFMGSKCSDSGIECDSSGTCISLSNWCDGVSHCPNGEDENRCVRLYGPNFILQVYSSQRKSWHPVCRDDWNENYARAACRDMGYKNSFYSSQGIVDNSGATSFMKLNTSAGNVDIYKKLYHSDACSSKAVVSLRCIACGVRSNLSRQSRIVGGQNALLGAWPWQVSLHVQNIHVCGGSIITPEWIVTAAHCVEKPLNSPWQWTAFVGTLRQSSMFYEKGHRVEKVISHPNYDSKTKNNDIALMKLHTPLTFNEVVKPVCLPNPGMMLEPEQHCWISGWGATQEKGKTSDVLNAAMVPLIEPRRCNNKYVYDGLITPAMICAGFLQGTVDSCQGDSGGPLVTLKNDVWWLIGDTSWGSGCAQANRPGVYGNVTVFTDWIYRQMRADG
# human TMPRSS2 (NP_005647.3 with a V160M) expressed on MDCK/Tet-on/hTMPRSS2 cells, sequence (O15393 whole entry V160M): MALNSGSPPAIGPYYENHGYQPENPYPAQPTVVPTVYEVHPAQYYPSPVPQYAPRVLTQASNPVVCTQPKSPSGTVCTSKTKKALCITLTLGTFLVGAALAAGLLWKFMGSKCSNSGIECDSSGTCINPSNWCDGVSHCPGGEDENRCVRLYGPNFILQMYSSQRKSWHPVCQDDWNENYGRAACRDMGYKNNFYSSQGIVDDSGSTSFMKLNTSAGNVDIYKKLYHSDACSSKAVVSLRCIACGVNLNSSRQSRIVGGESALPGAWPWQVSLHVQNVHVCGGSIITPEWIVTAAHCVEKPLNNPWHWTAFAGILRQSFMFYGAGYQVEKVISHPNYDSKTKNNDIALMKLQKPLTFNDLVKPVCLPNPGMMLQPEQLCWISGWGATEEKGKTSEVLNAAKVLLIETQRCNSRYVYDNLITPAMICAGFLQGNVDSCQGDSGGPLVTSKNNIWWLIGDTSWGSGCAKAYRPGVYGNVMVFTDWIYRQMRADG
binder,measurement,setting,value
B1,EC50,[1],0.46 nM
same,EC50,[2],1.06 nM
